Target: tetanus toxoid (TT) (UniProt P04958 2-1315)
Test: antigen-specific ELISA, coated at 1:500 dilution (FIG. 4B)

tetanus toxoid (TT), sequence (P04958 2-457 limits assumed, chain 1 of 2): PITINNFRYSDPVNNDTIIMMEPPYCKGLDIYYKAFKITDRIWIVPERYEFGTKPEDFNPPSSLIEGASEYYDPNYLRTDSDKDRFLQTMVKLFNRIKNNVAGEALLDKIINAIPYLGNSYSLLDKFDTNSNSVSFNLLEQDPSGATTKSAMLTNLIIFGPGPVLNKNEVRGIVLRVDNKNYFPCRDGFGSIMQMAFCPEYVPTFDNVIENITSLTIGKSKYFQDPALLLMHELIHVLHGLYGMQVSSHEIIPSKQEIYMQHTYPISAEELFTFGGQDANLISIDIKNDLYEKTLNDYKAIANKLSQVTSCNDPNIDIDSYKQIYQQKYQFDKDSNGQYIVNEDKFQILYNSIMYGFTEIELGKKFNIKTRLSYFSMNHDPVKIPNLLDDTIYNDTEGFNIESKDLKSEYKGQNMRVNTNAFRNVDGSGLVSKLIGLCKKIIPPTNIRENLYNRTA
tetanus toxoid (TT), sequence (P04958 458-1315 limits assumed, chain 2 of 2): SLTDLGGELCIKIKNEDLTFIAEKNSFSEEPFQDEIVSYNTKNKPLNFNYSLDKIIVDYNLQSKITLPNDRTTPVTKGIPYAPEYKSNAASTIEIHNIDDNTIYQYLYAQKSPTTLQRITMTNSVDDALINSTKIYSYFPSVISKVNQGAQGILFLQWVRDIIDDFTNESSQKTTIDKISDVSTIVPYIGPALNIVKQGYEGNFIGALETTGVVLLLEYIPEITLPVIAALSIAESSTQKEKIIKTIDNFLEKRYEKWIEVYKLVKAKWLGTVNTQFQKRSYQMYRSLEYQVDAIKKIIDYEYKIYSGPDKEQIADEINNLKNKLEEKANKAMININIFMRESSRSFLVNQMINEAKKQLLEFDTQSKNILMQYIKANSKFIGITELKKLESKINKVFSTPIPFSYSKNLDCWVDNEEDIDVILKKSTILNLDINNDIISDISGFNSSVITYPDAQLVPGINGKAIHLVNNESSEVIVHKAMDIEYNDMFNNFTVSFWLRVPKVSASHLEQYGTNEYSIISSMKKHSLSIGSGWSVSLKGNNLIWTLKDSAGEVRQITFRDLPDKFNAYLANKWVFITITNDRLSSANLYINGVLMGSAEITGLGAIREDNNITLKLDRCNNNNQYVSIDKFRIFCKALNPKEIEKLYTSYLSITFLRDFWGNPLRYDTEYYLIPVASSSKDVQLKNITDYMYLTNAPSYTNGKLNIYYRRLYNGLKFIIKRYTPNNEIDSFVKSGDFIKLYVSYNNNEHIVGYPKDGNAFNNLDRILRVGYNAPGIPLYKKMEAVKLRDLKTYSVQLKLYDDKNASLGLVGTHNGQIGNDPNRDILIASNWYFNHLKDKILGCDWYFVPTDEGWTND

B1: Fc-TEM1 (soluble recombinant endosialin: full-length TEM1 extracellular domain fused to monomeric murine IgG2b Fc) (Fc fusion, human)
chain: QDPWAAEPRAACGPSSCYALFPRRRTFLEAWRACRELGGDLATPRTPEEAQRVDSLVGAGPASRLLWIGLQRQARQCQLQRPLRGFTWTTGDQDTAFTNWAQPASGGPCPAQRCVALEASGEHRWLEGSCTLAVDGYLCQFGFEGACPALQDEAGQAGPAVYTTPFHLVSTEFEWLPFGSVAAVQCQAGRGASLLCVKQPEGGVGWSRAGPLCLGTGCSPDNGGCEHECVEEVDGHVSCRCTEGFRLAADGRSCEDPCAQAPCEQQCEPGGPQGYSCHCRLGFRPAEDDPHRCVDTDECQIAGVCQQMCVNYVGGFECYCSEGHELEADGISCSPAGAMGAQASQDLGDELLDDGEDEEDEDEAWKAFNGGWTEMPGILWMEPTQPPDFALAYRPSFPEDREPQIPYPEPTWPPPLSAPRVPYHSSVLSVTRPVVVSATHPTLPSAHQPPVIPATHPALSRDHQIPVIAANYPDLPSAYQPGILSVSHSAQPPAHQPPMISTKYPELFPAHQSPMFPDTRVAGTQTTTHLPGIPPNHAPLVTTLGAQLPPQAPDALVLRTQATQLPIIPTAQPSLTTTSRSPVSPAHQISVPAATQPAALPTLLPSQSPTNQTSPISPTHPHSKAPQIPREDGPSPKLALWLPSPAPTAAPTALGEAGLAEHSQRDDRWLDDDD
notes: extracellular domain; Monomeric secreted fusion protein made in CHO cells; also called TEM1-Fcγ; not shown: murine IgG2b Fcγ domain (hinge through CH3), modified: the four cysteine residues responsible for inter-heavy chain disu
binding result: no binding (tested: 5, 10, 50 ug/ml)

Source: patent publication US20080248034A1 (MORPHOTEK, published 2008)
